T1: Human CD3eg linker (human)
T1 construct: Single-chain construct; also called recombinant human CD3
T1 chain: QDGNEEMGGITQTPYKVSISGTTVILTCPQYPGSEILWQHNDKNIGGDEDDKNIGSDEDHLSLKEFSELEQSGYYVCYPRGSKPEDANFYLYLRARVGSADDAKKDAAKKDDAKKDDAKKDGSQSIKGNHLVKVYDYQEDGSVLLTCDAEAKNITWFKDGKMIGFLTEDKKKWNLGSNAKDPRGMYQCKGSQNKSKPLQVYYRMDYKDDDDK

B1: H183/L072 VL H27dN (antibody, name in Kabat numbering, V domains shown)
VH: QVQLVESGGGLVQPGRSLRLSCAASGFTFSNAWMHWVRQAPGKGLEWVAQIKDKGNAYAAYYAPSVKGRFTISRDDSKNSIYLQMNSLKTEDTAVYYCHYVHYASASTVLPAFGVDAWGQGTTVTVSS
VL: DIVMTQSPLSLPVTPGEPASISCQASQELVNMNRNTYLHWYQQKPGQAPRLLIYKVSNRFPGVPDRFSGSGSGTDFTLKISRVEAEDVGVYYCAQGTSVPFTFGQGTKLEIK
B2: H183/L072 VL H27dQ (antibody, name in Kabat numbering, V domains shown)
VH: QVQLVESGGGLVQPGRSLRLSCAASGFTFSNAWMHWVRQAPGKGLEWVAQIKDKGNAYAAYYAPSVKGRFTISRDDSKNSIYLQMNSLKTEDTAVYYCHYVHYASASTVLPAFGVDAWGQGTTVTVSS
VL: DIVMTQSPLSLPVTPGEPASISCQASQELVQMNRNTYLHWYQQKPGQAPRLLIYKVSNRFPGVPDRFSGSGSGTDFTLKISRVEAEDVGVYYCAQGTSVPFTFGQGTKLEIK
B3: H183/L072 VL H27dS (antibody, name in Kabat numbering, V domains shown)
VH: QVQLVESGGGLVQPGRSLRLSCAASGFTFSNAWMHWVRQAPGKGLEWVAQIKDKGNAYAAYYAPSVKGRFTISRDDSKNSIYLQMNSLKTEDTAVYYCHYVHYASASTVLPAFGVDAWGQGTTVTVSS
VL: DIVMTQSPLSLPVTPGEPASISCQASQELVSMNRNTYLHWYQQKPGQAPRLLIYKVSNRFPGVPDRFSGSGSGTDFTLKISRVEAEDVGVYYCAQGTSVPFTFGQGTKLEIK
B4: H183/L072 VL H34D (antibody, name in Kabat numbering, V domains shown)
VH: QVQLVESGGGLVQPGRSLRLSCAASGFTFSNAWMHWVRQAPGKGLEWVAQIKDKGNAYAAYYAPSVKGRFTISRDDSKNSIYLQMNSLKTEDTAVYYCHYVHYASASTVLPAFGVDAWGQGTTVTVSS
VL: DIVMTQSPLSLPVTPGEPASISCQASQELVHMNRNTYLDWYQQKPGQAPRLLIYKVSNRFPGVPDRFSGSGSGTDFTLKISRVEAEDVGVYYCAQGTSVPFTFGQGTKLEIK
B5: H183/L072 VL H34S (antibody, name in Kabat numbering, V domains shown)
VH: QVQLVESGGGLVQPGRSLRLSCAASGFTFSNAWMHWVRQAPGKGLEWVAQIKDKGNAYAAYYAPSVKGRFTISRDDSKNSIYLQMNSLKTEDTAVYYCHYVHYASASTVLPAFGVDAWGQGTTVTVSS
VL: DIVMTQSPLSLPVTPGEPASISCQASQELVHMNRNTYLSWYQQKPGQAPRLLIYKVSNRFPGVPDRFSGSGSGTDFTLKISRVEAEDVGVYYCAQGTSVPFTFGQGTKLEIK
B6: H183/L072 VL H34T (antibody, name in Kabat numbering, V domains shown)
VH: QVQLVESGGGLVQPGRSLRLSCAASGFTFSNAWMHWVRQAPGKGLEWVAQIKDKGNAYAAYYAPSVKGRFTISRDDSKNSIYLQMNSLKTEDTAVYYCHYVHYASASTVLPAFGVDAWGQGTTVTVSS
VL: DIVMTQSPLSLPVTPGEPASISCQASQELVHMNRNTYLTWYQQKPGQAPRLLIYKVSNRFPGVPDRFSGSGSGTDFTLKISRVEAEDVGVYYCAQGTSVPFTFGQGTKLEIK
B7: H183/L072 VL K50R (antibody, name in Kabat numbering, V domains shown)
VH: QVQLVESGGGLVQPGRSLRLSCAASGFTFSNAWMHWVRQAPGKGLEWVAQIKDKGNAYAAYYAPSVKGRFTISRDDSKNSIYLQMNSLKTEDTAVYYCHYVHYASASTVLPAFGVDAWGQGTTVTVSS
VL: DIVMTQSPLSLPVTPGEPASISCQASQELVHMNRNTYLHWYQQKPGQAPRLLIYRVSNRFPGVPDRFSGSGSGTDFTLKISRVEAEDVGVYYCAQGTSVPFTFGQGTKLEIK
B8: H183/L072 VL H34L (antibody, name in Kabat numbering, V domains shown)
VH: QVQLVESGGGLVQPGRSLRLSCAASGFTFSNAWMHWVRQAPGKGLEWVAQIKDKGNAYAAYYAPSVKGRFTISRDDSKNSIYLQMNSLKTEDTAVYYCHYVHYASASTVLPAFGVDAWGQGTTVTVSS
VL: DIVMTQSPLSLPVTPGEPASISCQASQELVHMNRNTYLLWYQQKPGQAPRLLIYKVSNRFPGVPDRFSGSGSGTDFTLKISRVEAEDVGVYYCAQGTSVPFTFGQGTKLEIK
B9: H183/L072 VL H34Q (antibody, name in Kabat numbering, V domains shown)
VH: QVQLVESGGGLVQPGRSLRLSCAASGFTFSNAWMHWVRQAPGKGLEWVAQIKDKGNAYAAYYAPSVKGRFTISRDDSKNSIYLQMNSLKTEDTAVYYCHYVHYASASTVLPAFGVDAWGQGTTVTVSS
VL: DIVMTQSPLSLPVTPGEPASISCQASQELVHMNRNTYLQWYQQKPGQAPRLLIYKVSNRFPGVPDRFSGSGSGTDFTLKISRVEAEDVGVYYCAQGTSVPFTFGQGTKLEIK
B10: H183/L072 VL H34A (antibody, name in Kabat numbering, V domains shown)
VH: QVQLVESGGGLVQPGRSLRLSCAASGFTFSNAWMHWVRQAPGKGLEWVAQIKDKGNAYAAYYAPSVKGRFTISRDDSKNSIYLQMNSLKTEDTAVYYCHYVHYASASTVLPAFGVDAWGQGTTVTVSS
VL: DIVMTQSPLSLPVTPGEPASISCQASQELVHMNRNTYLAWYQQKPGQAPRLLIYKVSNRFPGVPDRFSGSGSGTDFTLKISRVEAEDVGVYYCAQGTSVPFTFGQGTKLEIK
B11: H183/L072 VL K50E (antibody, name in Kabat numbering, V domains shown)
VH: QVQLVESGGGLVQPGRSLRLSCAASGFTFSNAWMHWVRQAPGKGLEWVAQIKDKGNAYAAYYAPSVKGRFTISRDDSKNSIYLQMNSLKTEDTAVYYCHYVHYASASTVLPAFGVDAWGQGTTVTVSS
VL: DIVMTQSPLSLPVTPGEPASISCQASQELVHMNRNTYLHWYQQKPGQAPRLLIYEVSNRFPGVPDRFSGSGSGTDFTLKISRVEAEDVGVYYCAQGTSVPFTFGQGTKLEIK
B12: H183/L072 VL K50D (antibody, name in Kabat numbering, V domains shown)
VH: QVQLVESGGGLVQPGRSLRLSCAASGFTFSNAWMHWVRQAPGKGLEWVAQIKDKGNAYAAYYAPSVKGRFTISRDDSKNSIYLQMNSLKTEDTAVYYCHYVHYASASTVLPAFGVDAWGQGTTVTVSS
VL: DIVMTQSPLSLPVTPGEPASISCQASQELVHMNRNTYLHWYQQKPGQAPRLLIYDVSNRFPGVPDRFSGSGSGTDFTLKISRVEAEDVGVYYCAQGTSVPFTFGQGTKLEIK
B13: H183/L072 VL K50H (antibody, name in Kabat numbering, V domains shown)
VH: QVQLVESGGGLVQPGRSLRLSCAASGFTFSNAWMHWVRQAPGKGLEWVAQIKDKGNAYAAYYAPSVKGRFTISRDDSKNSIYLQMNSLKTEDTAVYYCHYVHYASASTVLPAFGVDAWGQGTTVTVSS
VL: DIVMTQSPLSLPVTPGEPASISCQASQELVHMNRNTYLHWYQQKPGQAPRLLIYHVSNRFPGVPDRFSGSGSGTDFTLKISRVEAEDVGVYYCAQGTSVPFTFGQGTKLEIK
B14: H183/L072 VL H34N (antibody, name in Kabat numbering, V domains shown)
VH: QVQLVESGGGLVQPGRSLRLSCAASGFTFSNAWMHWVRQAPGKGLEWVAQIKDKGNAYAAYYAPSVKGRFTISRDDSKNSIYLQMNSLKTEDTAVYYCHYVHYASASTVLPAFGVDAWGQGTTVTVSS
VL: DIVMTQSPLSLPVTPGEPASISCQASQELVHMNRNTYLNWYQQKPGQAPRLLIYKVSNRFPGVPDRFSGSGSGTDFTLKISRVEAEDVGVYYCAQGTSVPFTFGQGTKLEIK
B15: H183/L072 VL H34K (antibody, name in Kabat numbering, V domains shown)
VH: QVQLVESGGGLVQPGRSLRLSCAASGFTFSNAWMHWVRQAPGKGLEWVAQIKDKGNAYAAYYAPSVKGRFTISRDDSKNSIYLQMNSLKTEDTAVYYCHYVHYASASTVLPAFGVDAWGQGTTVTVSS
VL: DIVMTQSPLSLPVTPGEPASISCQASQELVHMNRNTYLKWYQQKPGQAPRLLIYKVSNRFPGVPDRFSGSGSGTDFTLKISRVEAEDVGVYYCAQGTSVPFTFGQGTKLEIK
B16: H183/L072 VL H34G (antibody, name in Kabat numbering, V domains shown)
VH: QVQLVESGGGLVQPGRSLRLSCAASGFTFSNAWMHWVRQAPGKGLEWVAQIKDKGNAYAAYYAPSVKGRFTISRDDSKNSIYLQMNSLKTEDTAVYYCHYVHYASASTVLPAFGVDAWGQGTTVTVSS
VL: DIVMTQSPLSLPVTPGEPASISCQASQELVHMNRNTYLGWYQQKPGQAPRLLIYKVSNRFPGVPDRFSGSGSGTDFTLKISRVEAEDVGVYYCAQGTSVPFTFGQGTKLEIK
B17: H183/L072 VL K50S (antibody, name in Kabat numbering, V domains shown)
VH: QVQLVESGGGLVQPGRSLRLSCAASGFTFSNAWMHWVRQAPGKGLEWVAQIKDKGNAYAAYYAPSVKGRFTISRDDSKNSIYLQMNSLKTEDTAVYYCHYVHYASASTVLPAFGVDAWGQGTTVTVSS
VL: DIVMTQSPLSLPVTPGEPASISCQASQELVHMNRNTYLHWYQQKPGQAPRLLIYSVSNRFPGVPDRFSGSGSGTDFTLKISRVEAEDVGVYYCAQGTSVPFTFGQGTKLEIK
B18: H183/L072 VL H27dT (antibody, name in Kabat numbering, V domains shown)
VH: QVQLVESGGGLVQPGRSLRLSCAASGFTFSNAWMHWVRQAPGKGLEWVAQIKDKGNAYAAYYAPSVKGRFTISRDDSKNSIYLQMNSLKTEDTAVYYCHYVHYASASTVLPAFGVDAWGQGTTVTVSS
VL: DIVMTQSPLSLPVTPGEPASISCQASQELVTMNRNTYLHWYQQKPGQAPRLLIYKVSNRFPGVPDRFSGSGSGTDFTLKISRVEAEDVGVYYCAQGTSVPFTFGQGTKLEIK
B19: H183/L072 VL K50T (antibody, name in Kabat numbering, V domains shown)
VH: QVQLVESGGGLVQPGRSLRLSCAASGFTFSNAWMHWVRQAPGKGLEWVAQIKDKGNAYAAYYAPSVKGRFTISRDDSKNSIYLQMNSLKTEDTAVYYCHYVHYASASTVLPAFGVDAWGQGTTVTVSS
VL: DIVMTQSPLSLPVTPGEPASISCQASQELVHMNRNTYLHWYQQKPGQAPRLLIYTVSNRFPGVPDRFSGSGSGTDFTLKISRVEAEDVGVYYCAQGTSVPFTFGQGTKLEIK
B20: H183/L072 VL H34E (antibody, name in Kabat numbering, V domains shown)
VH: QVQLVESGGGLVQPGRSLRLSCAASGFTFSNAWMHWVRQAPGKGLEWVAQIKDKGNAYAAYYAPSVKGRFTISRDDSKNSIYLQMNSLKTEDTAVYYCHYVHYASASTVLPAFGVDAWGQGTTVTVSS
VL: DIVMTQSPLSLPVTPGEPASISCQASQELVHMNRNTYLEWYQQKPGQAPRLLIYKVSNRFPGVPDRFSGSGSGTDFTLKISRVEAEDVGVYYCAQGTSVPFTFGQGTKLEIK

Target: T1, Human CD3eg linker
Assay: SPR; fold vs parent H183/L072

B1 and B2 are the same in “fold change of affinity” value: 0 fold for the first, 0 fold for the second.

B3 and B4 are the same in “fold change of affinity” value: 0 fold for the first, 0 fold for the second.

Compared with B5, B6 is lower in “fold change of affinity” value: 0.5 fold for the first, 0.4 fold for the second.

B7 and B8 are the same in “fold change of affinity” value: 0 fold for the first, 0 fold for the second.

Going from B9 to B10, the “fold change of affinity” value rises from 0 fold to 0.6 fold.

B11 and B12 are the same in “fold change of affinity” value: 0 fold for the first, 0 fold for the second.

Going from B13 to B14, the “fold change of affinity” value rises from 0 fold to 0.2 fold.

Going from B15 to B16, the “fold change of affinity” value falls from 0.4 fold to 0.3 fold.

B17 and B18 are the same in “fold change of affinity” value: 0 fold for the first, 0 fold for the second.

B19 and B20 are the same in “fold change of affinity” value: 0 fold for the first, 0 fold for the second.
